In patent US7122652B1, “Polymorphisms in the human hPXR gene and their use diagnostic and therapeutic applications” (priority 1999, dated 2006):

Tested on: hPXR-dependent promoter-reporter gene plasmid pGL3(DR3)3TK(−105)
Assay: hPXR-dependent promoter-reporter gene (luciferase) assay in co-transfected LS174T cells
Assay type: cell-based, human
Settings: 42 hours; for hPXR-mediated transcriptional activation of the reporter gene upon treatment with rifampicin, relative to wild type hPXR: 10 μM rifampicin, FIG. 6A; for basal activity in the absence of added hPXR activators, relative to wild type hPXR: 0.1% DMSO only, FIG. 6B
Protocol: FIG. 6: LS174T cells were co-transfected with the promoter artificial hPXR dependent reporter gene pGL3(DR3)3Tk(−105), pCMVβ and expression plasmids for hPXR variants, as indicated. Cells were treated for 42 hours with 10 μM rifampicin or 0.1% DMSO, then harvested and analyzed for luciferase and β-galactosidase activities. Data are shown as mean value ±SD. The activity of each hPXR variant in the presence of DMSO only was taken as 1 (A, B) or 100% (C). A) The effect of hPXR variants following 10 μM rifampicin. B) The effect of hPXR variants in the absence of exogenous inducers.
The functional consequences of the protein variants were investigated in LS174T cells. LS174T cells were first co-transfected with wild-type or variant hPXR expression plasmids together with the hPXR-dependent promoter-reporter gene plasmid pGL3(DR3)3TK(−105). […] The cells were treated with the xenobiotic rifampicin, a known activator of human hPXR (Blumberg, Genes Dev (1998), 3195–3205; Lehmann, J Clin Invest (1998), 1016–1023). […] In contrast, hPXR-mediated transcriptional activation was impaired in V140M, D163G and hPXR-2 variants. […] Changes in basal activity of variants are independent from activator-dependent activity.

Molecule | hPXR-mediated transcriptional activation of the reporter gene upon treatment with rifampicin, relative to wild type hPXR | basal activity in the absence of added hPXR activators, relative to wild type hPXR
E18K: hPXR protein variant, amino acid substitution of E to K at position 18 (c. 52G > A, exon 2) (protein, UniProt O75469 1-434, looked up, variant E18K) Nuclear receptor subfamily 1 …: MEVRPKESWNHADFVHCKDTESVPGKPSVNADEEVGGPQICRVCGDKATGYHFNVMTCEGCKGFFRRAMKRNARLRCPFRKGACEITRKTRRQCQACRLRKCLESGMKKEMIMSDEAVEERRALIKRKKSERTGTQPLGVQGLTEEQRMMIRELMDAQMKTFDTTFSHFKNFRLPGVLSSGCELPESLQAPSREEAAKWSQVRKDLCSLKVSLQLRGEDGSVWNYKPPADSGGKEIFSLLPHMADMSTYMFKGIISFAKVISYFRDLPIEDQISLLKGAAFELCQLRFNTVFNAETGTWECGRLSYCLEDTAGGFQQLLLEPMLKFHYMLKKLQLHEEEYVLMQAISLFSPDRPGVLQHRVVDQLQEQFAITLKSYIECNRPQPAHRFLFLKIMAMLTELRSINAQHTQRLLRIQDIHPFATPLMQELFGITGS | as efficiently as wild type hPXR | lower basal activity than wild type hPXR
P27S: hPXR protein variant, amino acid substitution of P to S at position 27 (c. 79C > T, exon 2) (protein, UniProt O75469 1-434, looked up, variant P27S) Nuclear receptor subfamily 1 …: MEVRPKESWNHADFVHCEDTESVPGKSSVNADEEVGGPQICRVCGDKATGYHFNVMTCEGCKGFFRRAMKRNARLRCPFRKGACEITRKTRRQCQACRLRKCLESGMKKEMIMSDEAVEERRALIKRKKSERTGTQPLGVQGLTEEQRMMIRELMDAQMKTFDTTFSHFKNFRLPGVLSSGCELPESLQAPSREEAAKWSQVRKDLCSLKVSLQLRGEDGSVWNYKPPADSGGKEIFSLLPHMADMSTYMFKGIISFAKVISYFRDLPIEDQISLLKGAAFELCQLRFNTVFNAETGTWECGRLSYCLEDTAGGFQQLLLEPMLKFHYMLKKLQLHEEEYVLMQAISLFSPDRPGVLQHRVVDQLQEQFAITLKSYIECNRPQPAHRFLFLKIMAMLTELRSINAQHTQRLLRIQDIHPFATPLMQELFGITGS | as efficiently as wild type hPXR | lower basal activity than wild type hPXR
A370T: hPXR protein variant, amino acid substitution of A to T at position 370 (c. 1108G > A, exon 8) (protein, UniProt O75469 1-434, looked up, variant A370T) Nuclear receptor subfamily 1 …: MEVRPKESWNHADFVHCEDTESVPGKPSVNADEEVGGPQICRVCGDKATGYHFNVMTCEGCKGFFRRAMKRNARLRCPFRKGACEITRKTRRQCQACRLRKCLESGMKKEMIMSDEAVEERRALIKRKKSERTGTQPLGVQGLTEEQRMMIRELMDAQMKTFDTTFSHFKNFRLPGVLSSGCELPESLQAPSREEAAKWSQVRKDLCSLKVSLQLRGEDGSVWNYKPPADSGGKEIFSLLPHMADMSTYMFKGIISFAKVISYFRDLPIEDQISLLKGAAFELCQLRFNTVFNAETGTWECGRLSYCLEDTAGGFQQLLLEPMLKFHYMLKKLQLHEEEYVLMQAISLFSPDRPGVLQHRVVDQLQEQFTITLKSYIECNRPQPAHRFLFLKIMAMLTELRSINAQHTQRLLRIQDIHPFATPLMQELFGITGS | slightly impaired transcriptional activation | 207 % of wild type
D163G: hPXR protein variant, amino acid substitution of D to G at position 163 (c. 488A > G, exon 4) (protein, UniProt O75469 1-434, looked up, variant D163G) Nuclear receptor subfamily 1 …: MEVRPKESWNHADFVHCEDTESVPGKPSVNADEEVGGPQICRVCGDKATGYHFNVMTCEGCKGFFRRAMKRNARLRCPFRKGACEITRKTRRQCQACRLRKCLESGMKKEMIMSDEAVEERRALIKRKKSERTGTQPLGVQGLTEEQRMMIRELMDAQMKTFGTTFSHFKNFRLPGVLSSGCELPESLQAPSREEAAKWSQVRKDLCSLKVSLQLRGEDGSVWNYKPPADSGGKEIFSLLPHMADMSTYMFKGIISFAKVISYFRDLPIEDQISLLKGAAFELCQLRFNTVFNAETGTWECGRLSYCLEDTAGGFQQLLLEPMLKFHYMLKKLQLHEEEYVLMQAISLFSPDRPGVLQHRVVDQLQEQFAITLKSYIECNRPQPAHRFLFLKIMAMLTELRSINAQHTQRLLRIQDIHPFATPLMQELFGITGS | 50 % of wild type activity | approximately 10 % of wild type
V140M: hPXR protein variant, amino acid substitution of V to M at position 140 (c. 418G > A, exon 4) (protein, UniProt O75469 1-434, looked up, variant V140M) Nuclear receptor subfamily 1 …: MEVRPKESWNHADFVHCEDTESVPGKPSVNADEEVGGPQICRVCGDKATGYHFNVMTCEGCKGFFRRAMKRNARLRCPFRKGACEITRKTRRQCQACRLRKCLESGMKKEMIMSDEAVEERRALIKRKKSERTGTQPLGMQGLTEEQRMMIRELMDAQMKTFDTTFSHFKNFRLPGVLSSGCELPESLQAPSREEAAKWSQVRKDLCSLKVSLQLRGEDGSVWNYKPPADSGGKEIFSLLPHMADMSTYMFKGIISFAKVISYFRDLPIEDQISLLKGAAFELCQLRFNTVFNAETGTWECGRLSYCLEDTAGGFQQLLLEPMLKFHYMLKKLQLHEEEYVLMQAISLFSPDRPGVLQHRVVDQLQEQFAITLKSYIECNRPQPAHRFLFLKIMAMLTELRSINAQHTQRLLRIQDIHPFATPLMQELFGITGS | 50 % of wild type activity | 130 % of wild type
G36R: hPXR protein variant, amino acid substitution of G to R at position 36 (c. 106G > A, exon 2) (protein, UniProt O75469 1-434, looked up, variant G36R) Nuclear receptor subfamily 1 …: MEVRPKESWNHADFVHCEDTESVPGKPSVNADEEVRGPQICRVCGDKATGYHFNVMTCEGCKGFFRRAMKRNARLRCPFRKGACEITRKTRRQCQACRLRKCLESGMKKEMIMSDEAVEERRALIKRKKSERTGTQPLGVQGLTEEQRMMIRELMDAQMKTFDTTFSHFKNFRLPGVLSSGCELPESLQAPSREEAAKWSQVRKDLCSLKVSLQLRGEDGSVWNYKPPADSGGKEIFSLLPHMADMSTYMFKGIISFAKVISYFRDLPIEDQISLLKGAAFELCQLRFNTVFNAETGTWECGRLSYCLEDTAGGFQQLLLEPMLKFHYMLKKLQLHEEEYVLMQAISLFSPDRPGVLQHRVVDQLQEQFAITLKSYIECNRPQPAHRFLFLKIMAMLTELRSINAQHTQRLLRIQDIHPFATPLMQELFGITGS | as efficiently as wild type hPXR | lower basal activity than wild type hPXR
